Laboratory results: the Immune Epitope Database (IEDB)
Blank lines part the entries; values can stand above or below the sequence they belong to.

Columns and labels:
HLA-B*44:03 = assay: IEDB peptide-MHC binding, purified MHC/competitive/radioactivity; filed as Kd, often an IC50 or EC50 that approximates it; ≥ and ≤ were set here for values at or beyond the usual limits of such assays
HLA-B*18:01 [1] = assay: as above
HLA-B*40:01 [2] = assay: as above
HLA-B*45:01 = assay: as above
HLA-B*44:02 = assay: as above
HLA-B*40:02 = assay: as above
HLA-A*68:02 [3] = assay: IEDB peptide-MHC binding, purified MHC/direct/fluorescence; filed as Kd, often an IC50 or EC50 that approximates it; ≥ and ≤ were set here for values at or beyond the usual limits of such assays; conditions: source organism: Zaire ebolavirus
HLA-A*02:12 = assay: as above; conditions: source organism: Zaire ebolavirus
HLA-A*02:16 = assay: as above; conditions: source organism: Zaire ebolavirus
HLA-A*03:01 [4] = assay: as above; conditions: source organism: Zaire ebolavirus
HLA-A*02:11 = assay: as above; conditions: source organism: Zaire ebolavirus
HLA-B*40:01 [5] = assay: as above; conditions: source organism: Reston ebolavirus - Reston
HLA-A*29:02 [6] = assay: as above; conditions: source organism: Zaire ebolavirus
HLA-A*02:19 = assay: as above; conditions: source organism: Zaire ebolavirus
HLA-A*24:03 [7] = assay: as above; conditions: source organism: Zaire ebolavirus
HLA-A*02:03 = assay: as above; conditions: source organism: Zaire ebolavirus
HLA-B*27:03 = assay: IEDB peptide-MHC binding, purified MHC/competitive/fluorescence; filed as Kd, often an IC50 or EC50 that approximates it; ≥ and ≤ were set here for values at or beyond the usual limits of such assays
HLA-B*39:01 = assay: as above; conditions: source organism: Zaire ebolavirus
HLA-B*51:01 = assay: as above; conditions: source organism: Zaire ebolavirus
HLA-B*15:01 = assay: as above
HLA-B*15:17 = assay: as above; conditions: source organism: Zaire ebolavirus
HLA-A*26:01 = assay: as above
HLA-A*02:01 [8] = assay: as above
HLA-B*57:01 = assay: as above
HLA-B*46:01 = assay: as above
HLA-A*68:02 [9] = assay: as above
HLA-A*24:02 [10] = assay: IEDB peptide-MHC binding, purified MHC/competitive/fluorescence; ≥ and ≤ were set here for values at or beyond the usual limits of such assays; conditions: source organism: Sudan ebolavirus
HLA-B*18:01 [11] = assay: IEDB peptide-MHC binding, purified MHC/competitive/fluorescence; filed as Kd, often an IC50 or EC50 that approximates it; ≥ and ≤ were set here for values at or beyond the usual limits of such assays
HLA-A*69:01 = assay: as above; conditions: source organism: Zaire ebolavirus
HLA-A*02:17 = assay: IEDB peptide-MHC binding, purified MHC/competitive/radioactivity; filed as Kd, often an IC50 or EC50 that approximates it; ≥ and ≤ were set here for values at or beyond the usual limits of such assays
HLA-A*02:01 [12] = assay: as above
HLA-A*24:03 [13] = assay: IEDB peptide-MHC binding, purified MHC/competitive/fluorescence; filed as Kd, often an IC50 or EC50 that approximates it; ≥ and ≤ were set here for values at or beyond the usual limits of such assays
HLA-A*03:01 [14] = assay: as above; conditions: source organism: Homo sapiens
HLA-A*24:02 [15] = assay: IEDB peptide-MHC binding, purified MHC/competitive/radioactivity; filed as Kd, often an IC50 or EC50 that approximates it; ≥ and ≤ were set here for values at or beyond the usual limits of such assays; conditions: source organism: Lassa virus Josiah
HLA-A*23:01 = assay: as above; conditions: source organism: Lassa virus Josiah
HLA-A*29:02 [16] = assay: as above; conditions: source organism: Lassa virus Josiah
[17] = source organism: Mammarenavirus brazilense
[18] = source organism: Zaire ebolavirus
[19] = source organism: Mammarenavirus juninense
[20] = source organism: Mammarenavirus machupoense
[21] = source organism: SARS coronavirus Tor2
[22] = source organism: Dengue virus 2 Jamaica/1409/1983
[23] = source organism: Lymphocytic choriomeningitis virus (strain WE)
[24] = source organism: Dengue virus 4 Philippines/H241/1956
[25] = source organism: Lymphocytic choriomeningitis virus (strain Armstrong)
[26] = source organism: Lassa virus Josiah

Sequence: AENGELTEI
Kd (HLA-B*44:03; [17]): 319 nM
Kd (HLA-B*18:01 [1]; [17]): ≥ 77500 nM
Kd (HLA-B*40:01 [2]; [17]): 2030 nM
Kd (HLA-B*45:01; [17]): 74 nM
Kd (HLA-B*44:02; [17]): 181 nM
Kd (HLA-B*40:02; [17]): 47.8 nM

Sequence: DEMVCKWLL
Kd (HLA-A*68:02 [3]): ≥ 20000 nM
Kd (HLA-A*02:12): ≥ 20000 nM
Kd (HLA-A*02:16): ≥ 20000 nM
Kd (HLA-A*03:01 [4]): ≥ 20000 nM
Kd (HLA-A*02:11): ≥ 20000 nM
Kd (HLA-B*40:01 [5]): 387 nM
Kd (HLA-A*29:02 [6]): ≥ 20000 nM
Kd (HLA-A*02:19): ≥ 20000 nM
Kd (HLA-A*24:03 [7]): ≥ 20000 nM
Kd (HLA-A*02:03): ≥ 20000 nM
Kd (HLA-B*27:03; [18]): ≥ 20000 nM
Kd (HLA-B*39:01): ≥ 20000 nM
Kd (HLA-B*51:01): ≥ 20000 nM
Kd (HLA-B*15:01; [18]): ≥ 20000 nM
Kd (HLA-B*15:17): ≥ 20000 nM
Kd (HLA-A*26:01; [18]): ≥ 20000 nM
Kd (HLA-A*02:01 [8]; [18]): ≥ 20000 nM
Kd (HLA-B*57:01; [18]): ≥ 20000 nM
Kd (HLA-B*46:01; [18]): ≥ 20000 nM

Sequence: DETKKQVNLM
Kd (HLA-B*44:03; [19]): ≥ 70100 nM
Kd (HLA-B*18:01 [1]; [19]): 9010 nM
Kd (HLA-B*40:01 [2]; [19]): 14600 nM
Kd (HLA-B*45:01; [19]): ≥ 33100 nM
Kd (HLA-B*44:02; [19]): ≥ 64600 nM
Kd (HLA-B*40:02; [19]): ≥ 70800 nM

Sequence: EEVLDVCPL
Kd (HLA-B*44:03; [20]): 5440 nM
Kd (HLA-B*18:01 [1]; [20]): 368 nM
Kd (HLA-B*40:01 [2]; [20]): 70.2 nM
Kd (HLA-B*45:01; [20]): 2480 nM
Kd (HLA-B*44:02; [20]): 13700 nM
Kd (HLA-B*40:02; [20]): 85.2 nM

Sequence: ELWDPSTEA
Kd (HLA-A*68:02 [9]; source organism: Burkholderia mallei NCTC 10229): 78.1 nM

Sequence: EWAENCYNL
Kd (HLA-A*68:02 [3]): ≥ 20000 nM
Kd (HLA-A*02:12): ≥ 20000 nM
Kd (HLA-A*02:16): ≥ 20000 nM
Kd (HLA-A*03:01 [4]): ≥ 20000 nM
Kd (HLA-A*02:11): ≥ 20000 nM
Kd (HLA-A*29:02 [6]): ≥ 20000 nM
Kd (HLA-A*02:19): ≥ 20000 nM
Kd (HLA-A*24:03 [7]): ≥ 20000 nM
Kd (HLA-A*02:03): ≥ 20000 nM
IC50 (HLA-A*24:02 [10]): 6480 nM
Kd (HLA-B*18:01 [11]; [18]): ≥ 20000 nM
Kd (HLA-B*27:03; [18]): ≥ 20000 nM
Kd (HLA-B*39:01): ≥ 20000 nM
Kd (HLA-B*51:01): ≥ 20000 nM
Kd (HLA-B*15:01; [18]): ≥ 20000 nM
Kd (HLA-B*15:17): ≥ 20000 nM
Kd (HLA-A*69:01): ≥ 20000 nM
Kd (HLA-A*26:01; [18]): ≥ 20000 nM
Kd (HLA-A*02:01 [8]; [18]): ≥ 20000 nM
Kd (HLA-B*57:01; [18]): ≥ 20000 nM
Kd (HLA-B*46:01; [18]): ≥ 20000 nM

Sequence: FEEAALCTFL
Kd (HLA-B*44:03; [21]): 45.9 nM
Kd (HLA-B*18:01 [1]; [21]): 477 nM
Kd (HLA-B*40:01 [2]; [21]): 1.98 nM
Kd (HLA-B*45:01; [21]): 163 nM
Kd (HLA-B*44:02; [21]): 96.2 nM
Kd (HLA-B*40:02; [21]): 14 nM

Sequence: KMEKASFIEV
Kd (HLA-A*02:17; [22]): 1860 nM
Kd (HLA-A*02:01 [12]; [22]): 143 nM

Sequence: LDVLCPSSL
Kd (HLA-B*44:03; [23]): ≥ 78100 nM
Kd (HLA-B*18:01 [1]; [23]): ≥ 77500 nM
Kd (HLA-B*40:01 [2]; [23]): ≥ 23600 nM
Kd (HLA-B*45:01; [23]): ≥ 77700 nM
Kd (HLA-B*44:02; [23]): ≥ 22200 nM
Kd (HLA-B*40:02; [23]): 487 nM

Sequence: LMLVALLGA
Kd (HLA-A*02:17; [24]): 2920 nM
Kd (HLA-A*02:01 [12]; [24]): 10400 nM

Kd (HLA-A*68:02 [9]; source organism: Escherichia coli HS): 1.5 nM
Sequence: NCADHFEGV

Sequence: PFGQWDQTF
Kd (HLA-A*24:03 [13]; source organism: Yersinia pestis Antiqua): 209 nM

Sequence: QEYADVFHLY
Kd (HLA-B*44:03; [21]): 6.61 nM
Kd (HLA-B*18:01 [1]; [21]): 147 nM
Kd (HLA-B*40:01 [2]; [21]): 553 nM
Kd (HLA-B*45:01; [21]): 608 nM
Kd (HLA-B*44:02; [21]): 11.9 nM
Kd (HLA-B*40:02; [21]): 110 nM

Sequence: REAVESCPL
Kd (HLA-B*44:03; [25]): 13200 nM
Kd (HLA-B*18:01 [1]; [25]): 10300 nM
Kd (HLA-B*40:01 [2]; [25]): 11100 nM
Kd (HLA-B*45:01; [25]): ≥ 60800 nM
Kd (HLA-B*44:02; [25]): 5840 nM
Kd (HLA-B*40:02; [25]): 58.7 nM

Sequence: REFVFKNKDG
Kd (HLA-B*44:03; [21]): 515 nM
Kd (HLA-B*18:01 [1]; [21]): ≥ 70500 nM
Kd (HLA-B*40:01 [2]; [21]): 156 nM
Kd (HLA-B*45:01; [21]): 5420 nM
Kd (HLA-B*44:02; [21]): 11500 nM
Kd (HLA-B*40:02; [21]): 11500 nM

Sequence: SDTQIPGVC
Kd (HLA-B*44:03; [19]): ≥ 78100 nM
Kd (HLA-B*18:01 [1]; [19]): ≥ 77500 nM
Kd (HLA-B*40:01 [2]; [19]): ≥ 65600 nM
Kd (HLA-B*45:01; [19]): ≥ 51000 nM
Kd (HLA-B*44:02; [19]): ≥ 56200 nM
Kd (HLA-B*40:02; [19]): 12200 nM

Sequence: SEAFEYYHTL
Kd (HLA-B*44:03; [21]): 18.4 nM
Kd (HLA-B*18:01 [1]; [21]): 2140 nM
Kd (HLA-B*40:01 [2]; [21]): 1.18 nM
Kd (HLA-B*45:01; [21]): 60.4 nM
Kd (HLA-B*44:02; [21]): 10.5 nM
Kd (HLA-B*40:02; [21]): 6.54 nM

Sequence: SETLLPLTQY
Kd (HLA-B*44:03; [21]): 33.2 nM
Kd (HLA-B*18:01 [1]; [21]): 66.5 nM
Kd (HLA-B*40:01 [2]; [21]): 13100 nM
Kd (HLA-B*45:01; [21]): 1750 nM
Kd (HLA-B*44:02; [21]): 52.1 nM
Kd (HLA-B*40:02; [21]): 1880 nM

Sequence: SEVGICLST
Kd (HLA-B*44:03; [21]): 20.4 nM
Kd (HLA-B*18:01 [1]; [21]): 4510 nM
Kd (HLA-B*40:01 [2]; [21]): 241 nM
Kd (HLA-B*45:01; [21]): 8.52 nM
Kd (HLA-B*44:02; [21]): 120 nM
Kd (HLA-B*40:02; [21]): 10.6 nM

Sequence: SFYYIWKSYV
Kd (HLA-B*44:03; [21]): 319 nM
Kd (HLA-B*18:01 [1]; [21]): ≥ 70500 nM
Kd (HLA-B*40:01 [2]; [21]): 1150 nM
Kd (HLA-B*45:01; [21]): 1150 nM
Kd (HLA-B*44:02; [21]): 415 nM
Kd (HLA-B*40:02; [21]): 2320 nM

Kd (HLA-B*18:01 [11]; source organism: Homo sapiens): ≥ 20000 nM
Kd (HLA-B*27:03; source organism: Homo sapiens): ≥ 20000 nM
Kd (HLA-B*15:01; source organism: Homo sapiens): ≥ 20000 nM
Kd (HLA-A*03:01 [14]): ≥ 20000 nM
Kd (HLA-A*26:01; source organism: Homo sapiens): ≥ 20000 nM
Kd (HLA-A*02:01 [8]; source organism: Homo sapiens): 0.3 nM
Kd (HLA-B*57:01; source organism: Homo sapiens): ≥ 20000 nM
Kd (HLA-A*24:03 [13]; source organism: Homo sapiens): ≥ 20000 nM
Kd (HLA-B*46:01; source organism: Homo sapiens): ≥ 20000 nM
Sequence: WLGHPFTPV

Sequence: YDHALMSII
Kd (HLA-B*44:03; [26]): ≥ 33400 nM
Kd (HLA-B*18:01 [1]; [26]): ≥ 25400 nM
Kd (HLA-A*24:02 [15]): ≥ 30800 nM
Kd (HLA-A*23:01): 7730 nM
Kd (HLA-B*40:01 [2]; [26]): ≥ 26600 nM
Kd (HLA-B*45:01; [26]): ≥ 68600 nM
Kd (HLA-A*29:02 [16]): ≥ 46600 nM
Kd (HLA-B*44:02; [26]): 7050 nM
Kd (HLA-B*40:02; [26]): 49.5 nM
